The source of these data is the nanobody polyreactivity screen of Harvey et al. (2022).

A short description of this data set: yeast display, Sf9 membrane polyspecificity reagent, FACS + sequencing; frameworks hold sequencing errors. In outline: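 A nanobody's polyreactivity label depends on the gate it was sorted from. Yeast display cells were stained with 10% biotinylated, detergent-solubilized Sf9 membrane reagent for 1 hour at 4 °C, enriched on streptavidin microbeads and sorted by FACS. The low and high (top ~1%) gates were set on anti-HA fluorescence for expression and streptavidin fluorescence for reagent binding.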
As for “QVHLVETGGGLVQAGGSLRLSCAASGSIFFVYAMGCYRPAPGKERELVAAISNDGSTNYADSVKGRFTISRDNAKNTVYLQMNCLIPEDTAVYYCAKDTRTKYDYWGQGTQVTVSS”, the “polyreactivity (PSR sort gate)” value is recorded as “low polyreactivity”.

As to “QVHLVQSGGGLVQAGGSLRLSCAASGRIFKFYAMGWYRQAPGKEMELVATISRGGSTYYADSVKGRFTISRDNAKNTVYLQMNSLKPEDTAVYYCAKQRERYYWFGAWSYDYWGQGTQVTVSS”, the “polyreactivity (PSR sort gate)” value is “low polyreactivity”.

With “QVHLVQTGGGLVQAGGSLRLSCAASGRIFRTNGMGWYRQAPGKERELVAAISSGDSTYYADSVKVRFTISRDNAKNTVYLQMNSLKPEDTAVYYCAADFGRKGGPGYDYWGQGTQVTVSS”, the “polyreactivity (PSR sort gate)” value was “low polyreactivity”.

In the case of “QVHLYESGGGLVQLGGSLRLSCAASGTIFDYYTMGWYSQAPGKEREFVAAIAYGTNTYYADSVKGRFSISRDNAKHTVFLLLYSLKPEDTAVYYCATVGPRGLYYYWGQGTQVTVSS”, the “polyreactivity (PSR sort gate)” value is given as “high polyreactivity”.

With “QVHVVESWGGLVQAGGSLSLSCAASGLIIWMYTMGWYRQAPWKERELVAAIDWSGGSTYYADSVKGRFTISRDNAKNTVYLQMNSLKPEDTAVYYCAADPEPSYRFDYWGQGTQVTVSS”, the “polyreactivity (PSR sort gate)” value is reported as “low polyreactivity”.

As for “QVKHVESGGGLVQAGGSLRLTCAASGSIFYRNAMGWYRQAPGKERELVAGISRRGGSTYYADSVKGRFTMSRDNAKNTVYLQMNSLKPEDTAGYYCAADFAWVRLTYGYCGQGTQVTVSS”, the “polyreactivity (PSR sort gate)” value was “low polyreactivity”.

With “QVKIVESGGGLVQAGGSLRLSCAASGSTYYYYSMGWYRQAPGKERELVAAITGSGTSTYYADSVKGRFTISRDNAKNTVYLQMNSLKPEYTAVYYCAAEYPWYYYIDVSYTDYGYWGQGTQVTVSS”, the “polyreactivity (PSR sort gate)” value is reported as “high polyreactivity”.

As to “QVKLEDSGGGLVQAGGSLRLSCAASGSTFEKYVMGWYRQAPGKERELVAAITYSGDSTYYADSVKGRFTISRDNAKNTVYLQMNSLKPEDTAVYYCAAKTTRTSIPRKGRGYYYWGQGTQVTVSS”, the “polyreactivity (PSR sort gate)” value is “high polyreactivity”.

Take “QVKLEESGGGLVQAGGSLRLSSAASGYTIGIYAMGWYRQAPGKERELVAAISADGGITYYADSVKGRFTISRDNAKNTVYLQMNSLKPEDTAFYYCNTLVDQDAYAGFRLDYWGQGSQVTVSS”: the “polyreactivity (PSR sort gate)” value was “low polyreactivity”.

Turning to “QVKLGESGGGLVQAGGSLLLSCAASGRTFWYYTMGWYRQAPGKERELVASITAGSGTTYYADSVKGRFTISRHNAKNTVYFQMYSLKPEDSAGYYCSSKNTPSFFYYDRYDYWGHGTQVTVSS”, the “polyreactivity (PSR sort gate)” value is “low polyreactivity”.

Regarding “QVKLQGSGGGLAQAGDSLRLSCAASGTIFSEYNNGLVSPGAGQRTRTCCRYWCWGNTYYADSAKGRFTTSRDNAKNSVYLQKNSLKPEDTAVYYCAFNLPYPSRHIYRGQGTQVTVSS”, the “polyreactivity (PSR sort gate)” value was “high polyreactivity”.

Turning to “QVKLVESAGGLVQAGGSLRLSCAASGSIFPYNVMGWYRQAPGKERELVAAITRRGGSTYYADSVKGRFTISRDNAKNTVYLQMNSLKPEDSAVYYCAAVPYPRGIGYDYWGQGTQVTVSS”, the “polyreactivity (PSR sort gate)” value was “high polyreactivity”.

Regarding “QVKLVESAGGLVQAGGSLRLSCPASGIIFGLYTMGWYRQAPGKERELVAAISDSGGRTYYADSVKGRFTISRDNVKNTVYFQMNSRKPADTAVYYCATRWPNYGGYYYWGLGTQVTVSS”, the “polyreactivity (PSR sort gate)” value is listed as “high polyreactivity”.

Turning to “QVKLVESGAGLVQAGGSLRLSCAASGITFYWYAIGWYRPAPGKEMELVADITSSGSSTYYADSVKGRFTISRDNAKNTVYLQMNSLKPEDTAVYYCNARPGRRSLRSRTYDYWGQGTQVTVSS”, the “polyreactivity (PSR sort gate)” value is recorded as “high polyreactivity”.

For the sequence “QVKLVESGGGKVQAGGSLRLSCAASGYTFDPNAIGWYRQEPGKERELVAAISRIGGSTYYADSVKGRFTISRDNAKTTLYVQMNSLKPEDTAVYYCAVDWYLTGHWADDYWGQGTQVTVSS”, the “polyreactivity (PSR sort gate)” value is on record as “low polyreactivity”.

As for “QVKLVESGGGLVHAGGSLRLSCSASGRIIGFNAMGVYRQAPGKERELVASIRTTGGSTRYADSVKGRFTISRDNAKNTVSLQMNSLKPEDTAVYYCAARWGKTRWQYNYWGHGTQVTVSS”, the “polyreactivity (PSR sort gate)” value is “high polyreactivity”.

Regarding “QVKLVESGGGLVKAGGSLRLSCAASGSISDWYAMGWYIQAPGKERELVAAISNSDGSTYYADSEKGRFTISRDNAKNTVYLQMNSLQPEYTAVYYCNASDAHEDRKSEYWGQGTQVTVSS”, the “polyreactivity (PSR sort gate)” value was “low polyreactivity”.

As for “QVKLVESGGGLVPAGGSLRLSCAASGNIFVNYAMRWYRQAPGKERELVASINYNGGITYYADSVKGRFTISRDNAKNTVYLQMNSLKPEDTAVYDCDKDGGGLLRWYTDEYDYWGQGTQVTVSS”, the “polyreactivity (PSR sort gate)” value is given as “low polyreactivity”.

As to “QVKLVESGGGLVQAGGILRLSCAASGSIIVGNPMGWYRQAPGKERELVAAISRSGGSTYYADSVKGRFTISRDIAKNTVYLQMNSLKPEDTEVYYCASVRKQASGVDYWGQGTQVPVSS”, the “polyreactivity (PSR sort gate)” value is “high polyreactivity”.

With “QVKLVESGGGLVQAGGRLRLSCAASGFTCNVYAMGLYRQAPGKERELVADISGTGGSTYYADSVKGRFTISRDNAKNTVYLQMNSLKPEDTAVYYCSSGTRNFDFWGQGTQVTVSS”, the “polyreactivity (PSR sort gate)” value was “high polyreactivity”.

For the sequence “QVKLVESGGGLVQAGGSLLLSCAASGRTFYRYAMGWYIQAPGKERELVARISSGGGTYYADSVKGRFTISRDNAKNTVYLQMNSLKPEVTAVYYCNADVYRWSGSYTGWDSWHDYWGQGTQVSVSS”, the “polyreactivity (PSR sort gate)” value is listed as “low polyreactivity”.

“QVKLVESGGGLVQAGGSLRLSCAASGFIFPDYAMGWYRQAPGKERELVAAITSSGGRTYYADSVKGRFTISRDNAKNTVYLQMNSLKPEDTAVYYCAARTISPRGYGSDYWGQGTQVTVSS”: the “polyreactivity (PSR sort gate)” value is “high polyreactivity”.

“QVKLVESGGGLVQAGGSLRLSCAASGFIFSNNAMGWYRQAPGKERELVAAITSSGGRTYYADSVKGRFTISRDYAKNTVYLQMNSLKPEDSSVYYCAAARYDIMGYWGLGTQVTVSS”: the “polyreactivity (PSR sort gate)” value is on record as “high polyreactivity”.

In the case of “QVKLVESGGGLVQAGGSLRLSCAASGFTFTWYVMGWYRQAPGKESELVAAISRSGGSKYYADSVKGRFTISRDNAKNTVYLQMNRLKPEDTAVYYCADVGTSSYDYWGQGTQVTVSS”, the “polyreactivity (PSR sort gate)” value is listed as “high polyreactivity”.

With “QVKLVESGGGLVQAGGSLRLSCAASGGTFTLYAMGWYRQAPGKERELVAAISTSGGSTYYADSVKGRFTISRDNAKNTVYLQMNSLKPEDTAVYYCAAVTRYAGRIRYGYWGQGTQVTVSS”, the “polyreactivity (PSR sort gate)” value is reported as “high polyreactivity”.

“QVKLVESGGGLVQAGGSLRLSCAASGIIFTFYSMGRYRQAPGKERELVAAITGSGGSTYYADSVKGRFTISRDNAKNSVYLQMNSLKPEDTAVYYCAADGPYGYYYGHYGYWGHGTQVTVSS”: the “polyreactivity (PSR sort gate)” value is “low polyreactivity”.

Take “QVKLVESGGGLVQAGGSLRLSCAASGITFVSYAMGWYTQAPGKEREFVAAINRSGGSTYYADSVKGRFTISRDNAKNTVYLQMNSLKPEDTAVYYCAARRNLAYYHSGYWGQGTQVTVSS”: the “polyreactivity (PSR sort gate)” value is “high polyreactivity”.

For the sequence “QVKLVESGGGLVQAGGSLRLSCAASGLTFATYAMGWYREAPGKERELVAAISYSGDSTYYADSVKGRFTISRDNAKNTVYLQMNSLKPEDTAVYYCAKRLKRYRSSYKTFKLDYWGQGTQVTVSS”, the “polyreactivity (PSR sort gate)” value is given as “high polyreactivity”.

Consider “QVKLVESGGGLVQAGGSLRLSCAASGNIFRRYTMGWYRQAPGKERELVAAISSGGSTNYADSEKGRFTISRDNAKNTVYLQMNSLKPEDTAVYYCAVSYRSFRYYWERYYSWGQGTQVTVSS”, for which the “polyreactivity (PSR sort gate)” value is on record as “high polyreactivity”.

For the sequence “QVKLVESGGGLVQAGGSLRLSCAASGRIFVSKAMGWYRQAPGKERELVAAISKRGASTYYADSVKGRFTISRDKAKNPVYLQINSLKPEDTEVYYCNVVTTGGPNYDYWGQGTQVTVSS”, the “polyreactivity (PSR sort gate)” value is “high polyreactivity”.

On to “QVKLVESGGGLVQAGGSLRLSCAASGRTFRYNAMGWYRQEPGEERELVASITSGGSTNYADSVKGRFTISRDNAKNTVYLQMNRLKPEDTAVYYCAADERRPYWQHCIGSGRPFDYWGQGTQVTVSS”, for which the “polyreactivity (PSR sort gate)” value is listed as “low polyreactivity”.

Regarding “QVKLVESGGGLVQAGGSLRLSCAASGRTFVWNAMGWYRQAPGKERELVAAISSSGTSTYYADSVKGRFTISRDNAKNTVYLQMNSQKPEDTAVYYCAKDLLYQPTIRDYWGQGTQVTVSS”, the “polyreactivity (PSR sort gate)” value was “low polyreactivity”.

As to “QVKLVESGGGLVQAGGSLRLSCPASGSTFVLNAMGWYRQAPGKERELVAAITWSGASTYYADSVKGRFTISRDNAKNTVYLQMNSLKPEDTAVYYCANDIPTDYKDVNYWGQGTQVTVSS”, the “polyreactivity (PSR sort gate)” value is listed as “low polyreactivity”.

“QVKLVESGGGLVQAGGSLRLSCSASGSIITHNTMVWYRQAPGKERELVASIDSGASTNYADSVKWRFTISRDNAKNSVYLLMNSLKPEDTAVYYCAADDANFRYRDDYWGQGTQVTVSS”: the “polyreactivity (PSR sort gate)” value is given as “low polyreactivity”.

For the sequence “QVKLVESGGGLVQAGGSLRLSFAASGSIFFIYAMGWYRQETGKERELVASINSGGTTSNADSVKGRFTISRDNAKNTVYLQLNSLKPADTAVYYCATRGIVGILDSLSEEYYYWGQGTQVSVSS”, the “polyreactivity (PSR sort gate)” value is listed as “low polyreactivity”.

As to “QVKLVESGGGLVQAGGSLRLSSDASGSIFLYNAMGWYRQAPGKERELVADISWSGGSTYYADSVKGRFTISRVNEKYTVYLQMNSLKPEDTAVYYCNAVVYWFSTSYVYTYDYWGQGTQVTVSS”, the “polyreactivity (PSR sort gate)” value is reported as “high polyreactivity”.

Take “QVKLVESGGGLVQAGRSLRLSFAASGSTFLYYGMGWYRQAPGKERELVATITWRGGRTYYADSVKGRFTISRDNAKNTVYLQMNSLKPEDTAVYYCAARVVGSYRKPYPYGLYYWGQGTQVTVSS”: the “polyreactivity (PSR sort gate)” value was “high polyreactivity”.

As for “QVKLVESGGRLVQAGGSLRLSCAASGRNFYNYAMGWYRQAPGKERELVAAISKSGGRTYYADSVKGRFTISRDNAKNTVYLQMNSLKPEDTAVYYCAAEPFIPDQSRYYYWGQGSQVTVSS”, the “polyreactivity (PSR sort gate)” value is recorded as “high polyreactivity”.

On to “QVKLVESGGRLVQAGGSLRLSCAASGSIFYYYAMGWYRQAPVKERELVAAITNYADSVKGRFTISRDNAKNTVYLQMNSLKPEDTAVYYCAADWWRVEMDYWGQGTQVTVSS”, for which the “polyreactivity (PSR sort gate)” value was “low polyreactivity”.

On to “QVKLVESGGVLVQAGGSLRLSCAASGRIFGTYAMGWYRQAPGKERELVASISYSDGSTYADSVKGRFTISRDNAKNTVYLQMNSLKPEDTAVYYCAADVYYYAQCEDGYWGQGTQVTVSS”, for which the “polyreactivity (PSR sort gate)” value was “low polyreactivity”.

Take “QVKLVESGRGLVQAGGSLRVSCAASGRIFQRYVMGWYRQAPGKERELVAAITWSGGSTYADSVKGRFTISRDNAKNTVYLQMNSLKTEDTAVYYCAARVPYNYWGMYYLYDYWGQGTQVTVSS”: the “polyreactivity (PSR sort gate)” value is “high polyreactivity”.
